Here are results for one substance from publication doi:10.1101/586255v1.

The subject of the data set is N[C@@H](CO)C(=O)O. Description: purified protein, by the assay type. The settings on record: pH 7.6; 37.0 °C.

Turning to HsSerRS (Homo sapiens), the Km worked out at 1083 ± 156 µM.
